Values joined by “and” are separate entries in the source; they are usually repeats but may differ in a detail not shown here. Equal entries are not always repeated.

As a reminder, the stoichiometry N is the number of molecules, sites or subunits per partner or assembly. By Kd is commonly meant the equilibrium constant for the complex coming apart.

For test [1], the target named is Ce^2–184-Sp^140–152 chimera•Gemin2 (Caenorhabditis elegans | Schizosaccharomyces pombe | not stated) (UniProt Q09808). In words: SEC-MALS; Superdex 200 10/300 GL, 0.5 ml/min, room temperature (20°C), 50 mM HEPES-NaOH pH 7.5, 250 mM NaCl, 5 mM DTT; self-association of the SMN•G2 unit, (SMN•G2)n.
Test [2] addresses SMN (SMN•Gemin2 dimer) (Schizosaccharomyces pombe) (UniProt Q09808). The conditions noted are these: cited from earlier work.
Test [3] deals with Sp^1–117-Hs^253–294 chimera•Gemin2 (Schizosaccharomyces pombe | human | not stated) (UniProt Q09808). In words: SEC-MALS; Superdex 200 10/300 GL, 0.5 ml/min, room temperature (20°C), 50 mM HEPES-NaOH pH 7.5, 250 mM NaCl, 5 mM DTT; self-association of the SMN•G2 unit, (SMN•G2)n. (In general: SEC sorts molecules by how far they enter the pores of the column.)
A further test addresses hsSMNΔ5(G275S)•Gemin2 (UniProt O14893). In words: SEC-MALS. As to conditions: 20°C; peak concentration 0.5 µM; parent: 231 (188-454).
The next test concerns the target hsSMNΔ5(G279C)•Gemin2. As to the kind of experiment: SEC-MALS. The conditions noted are these: 20°C; peak concentration 0.5 µM; parent: 231 (188-454).
For test [4], the target named is hsSMNΔ5(L260S)•Gemin2, Q16637;O14893. In words: SEC-MALS. As to conditions: 20°C; peak concentration 0.3 µM; parent: 231 (188-454).
Test [5] addresses hsSMNΔ5(M263R)•Gemin2, Q16637;O14893. In words: SEC-MALS. As to conditions: 20°C; peak concentration 0.8 µM; parent: 231 (188-454).
For test [6], the target named is hsSMNΔ5(M263T)•Gemin2, Q16637;O14893. As to the kind of experiment: SEC-MALS. The conditions noted are these: 20°C; peak concentration 0.5 µM; parent: 231 (188-454).
Another test has as its target hsSMNΔ5(S262G)•Gemin2. As to the kind of experiment: SEC-MALS. As to conditions: 20°C; peak concentration 0.3 µM; parent: 231 (188-454).
The next test concerns the target hsSMNΔ5(S262I)•Gemin2. As to the kind of experiment: SEC-MALS. The conditions noted are these: 20°C; peak concentration 0.5 µM; parent: 231 (188-454).
Another test deals with hsSMNΔ5(S266P)•Gemin2. In words: SEC-MALS. The conditions noted are these: 20°C; peak concentration 0.2 µM; parent: 231 (188-454).
Test [7] concerns the target hsSMNΔ5(Y272C)•Gemin2, Q16637;O14893. As to the kind of experiment: SEC-MALS. As to conditions: 20°C; peak concentration 0.8 µM; parent: 231 (188-454).
Test [8] concerns the target spSMN-GCN4(IL) chimera•Gemin2 (Schizosaccharomyces pombe | S. cerevisiae) (UniProt P0CU08). In words: SEC-MALS + AUC + other: SAXS; spSMN-GCN4 fusions in complex with Gemin2; SEC-MALS, SV-AUC and SAXS named together.

Sequence of hsSMNΔ5•Gemin2 complex (from UniProt O14893) M263R (Q16637 whole entry M263R, stated change not applied): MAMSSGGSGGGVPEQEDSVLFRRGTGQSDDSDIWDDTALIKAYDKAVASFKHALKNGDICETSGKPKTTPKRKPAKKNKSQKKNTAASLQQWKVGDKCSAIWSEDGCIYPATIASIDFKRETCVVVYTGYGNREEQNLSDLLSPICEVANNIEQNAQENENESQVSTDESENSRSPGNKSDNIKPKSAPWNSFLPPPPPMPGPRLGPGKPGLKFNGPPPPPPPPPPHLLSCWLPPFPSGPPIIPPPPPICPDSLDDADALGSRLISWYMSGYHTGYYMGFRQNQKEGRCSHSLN
Sequence of hsSMNΔ5•Gemin2 complex (from UniProt O14893) M263R (O14893 12-280, stated change not applied): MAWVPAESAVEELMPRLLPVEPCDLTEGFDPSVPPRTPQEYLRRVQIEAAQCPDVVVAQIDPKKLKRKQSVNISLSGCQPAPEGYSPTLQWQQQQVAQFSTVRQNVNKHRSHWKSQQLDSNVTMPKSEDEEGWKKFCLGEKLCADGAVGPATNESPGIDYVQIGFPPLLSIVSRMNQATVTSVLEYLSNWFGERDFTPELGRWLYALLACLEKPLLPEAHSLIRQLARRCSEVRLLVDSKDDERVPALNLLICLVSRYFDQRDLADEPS
Sequence of hsSMNΔ5•Gemin2 complex (from UniProt O14893) M263T (Q16637 whole entry M263T, stated change not applied): as the sequence (Q16637 whole entry M263R, stated change not applied) above, with R263T counted along it
Sequence of hsSMNΔ5•Gemin2 complex (from UniProt O14893) M263T (O14893 12-280, stated change not applied): as the sequence (O14893 12-280, stated change not applied) above
Sequence of hsSMNΔ5•Gemin2 complex (from UniProt O14893) Y272C (Q16637 whole entry Y272C, stated change not applied): as the sequence (Q16637 whole entry M263R, stated change not applied) above, with R263M, Y272C counted along it
Sequence of hsSMNΔ5•Gemin2 complex (from UniProt O14893) Y272C (O14893 12-280, stated change not applied): as the sequence (O14893 12-280, stated change not applied) above
Sequence of hsSMNΔ5•Gemin2 complex (from UniProt O14893) L260S (Q16637 whole entry L260S, stated change not applied): as the sequence (Q16637 whole entry M263R, stated change not applied) above, with L260S, R263M counted along it
Sequence of hsSMNΔ5•Gemin2 complex (from UniProt O14893) L260S (O14893 12-280, stated change not applied): as the sequence (O14893 12-280, stated change not applied) above
Sequence of spSMN-GCN4(IL) chimera•Gemin2 (P0CU08 whole entry, looked up, change not shown): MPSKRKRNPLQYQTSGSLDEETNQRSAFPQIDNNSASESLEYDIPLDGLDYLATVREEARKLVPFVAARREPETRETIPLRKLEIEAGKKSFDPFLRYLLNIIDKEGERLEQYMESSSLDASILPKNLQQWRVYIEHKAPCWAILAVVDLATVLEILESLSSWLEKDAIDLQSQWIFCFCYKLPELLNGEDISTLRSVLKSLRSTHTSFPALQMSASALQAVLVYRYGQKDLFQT
Sequence of hsSMNΔ5•Gemin2 complex (from UniProt O14893) S266P (O14893 whole entry, looked up, stated change not applied, one chain of several): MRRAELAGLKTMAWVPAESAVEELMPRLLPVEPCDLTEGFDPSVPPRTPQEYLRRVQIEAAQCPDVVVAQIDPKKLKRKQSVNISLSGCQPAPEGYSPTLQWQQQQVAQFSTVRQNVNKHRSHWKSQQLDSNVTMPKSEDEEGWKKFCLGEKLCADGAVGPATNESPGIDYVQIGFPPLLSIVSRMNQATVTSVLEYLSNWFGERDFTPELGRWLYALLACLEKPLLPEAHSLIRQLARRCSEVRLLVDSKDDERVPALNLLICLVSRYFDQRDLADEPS
Sequence of hsSMNΔ5•Gemin2 complex (from UniProt O14893) G275S (O14893 whole entry, looked up, stated change not applied, one chain of several): as above
Sequence of hsSMNΔ5(G275S)•Gemin2 (O14893 whole entry, looked up, stated change not applied): as the sequence (O14893 whole entry, looked up, stated change not applied, one chain of several) above
Sequence of hsSMNΔ5•Gemin2 complex (from UniProt O14893) G279C (O14893 whole entry, looked up, stated change not applied, one chain of several): as above
Sequence of hsSMNΔ5•Gemin2 complex (from UniProt O14893) S262I (O14893 whole entry, looked up, stated change not applied, one chain of several): as above
Sequence of hsSMNΔ5•Gemin2 complex (from UniProt O14893) S262G (O14893 whole entry, looked up, stated change not applied, one chain of several): as above
Sequence of SMN (SMN•Gemin2 dimer) (Q09808 whole entry): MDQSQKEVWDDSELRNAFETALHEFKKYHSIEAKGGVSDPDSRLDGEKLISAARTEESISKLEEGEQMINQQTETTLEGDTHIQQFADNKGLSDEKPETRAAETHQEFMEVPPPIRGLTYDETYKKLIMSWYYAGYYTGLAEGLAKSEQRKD

The substance “Ce^2–184-Sp^140–152 chimera•Gemin2 (from UniProt Q09808 140-152) (complex)” gave a stoichiometry N in test [1] of 2.
With “SMN (SMN•Gemin2 dimer) (from UniProt Q09808)”, in test [2], the Kd was 1000 nM.
For the substance “Sp^1–117-Hs^253–294 chimera•Gemin2 (from UniProt Q09808 1-117; Q16637 253-294) (complex)”, the stoichiometry N in [3] was 4 and 8.
As to “hsSMNΔ5•Gemin2 complex (from UniProt O14893) G275S”, the other: SEC-MALS Mw in the test with hsSMNΔ5(G275S)•Gemin2 turned out to be 58.
“hsSMNΔ5•Gemin2 complex (from UniProt O14893) G279C”: the other: SEC-MALS Mw in the test with hsSMNΔ5(G279C)•Gemin2 is 586.
On to “hsSMNΔ5•Gemin2 complex (from UniProt O14893) L260S”, for which the other: SEC-MALS Mw in [4] stood at 124.
Consider “hsSMNΔ5•Gemin2 complex (from UniProt O14893) M263R”, for which the other: SEC-MALS Mw in test [5] was found to be 113.
Take “hsSMNΔ5•Gemin2 complex (from UniProt O14893) M263T”: in test [6], the other: SEC-MALS Mw is 115.
With “hsSMNΔ5•Gemin2 complex (from UniProt O14893) S262G”, in the test with hsSMNΔ5(S262G)•Gemin2, the other: SEC-MALS Mw worked out at 275.
Consider “hsSMNΔ5•Gemin2 complex (from UniProt O14893) S262I”, for which the other: SEC-MALS Mw in the test with hsSMNΔ5(S262I)•Gemin2 stood at 306.
For the substance “hsSMNΔ5•Gemin2 complex (from UniProt O14893) S266P”, the other: SEC-MALS Mw with hsSMNΔ5(S266P)•Gemin2 was determined as 99.
Take “hsSMNΔ5•Gemin2 complex (from UniProt O14893) Y272C”: the other: SEC-MALS Mw in test [7] turned out to be 78.
Consider “spSMN-GCN4(IL) chimera•Gemin2 (from UniProt P0CU08 1-235) (complex)”, for which the stoichiometry N in test [8] turned out to be 2.

These data come from PMC8287954.
